According to paper PMC3264566, “Structure-Function Studies of DNA Binding Domain of Response Regulator KdpE Reveals Equal Affinity Interactions at DNA Half-Sites”:
Substitutions are numbered along the chain they refer to.

Tests used:
Assay in all cases: EMSA; up to 1:8 DNA:protein; AUC: 50 mM HEPES pH 7.4, 150 mM KCl, 1 mM EDTA, 20 C, DNA 0.5 uM in SV; EMSA: 10 mM Tris pH 8.0, 50 mM NaCl, 5% glycerol, 0.1% Triton X-100, 10 mM DTT, 1 mM EDT
Details in all cases: protein: recombinant; chain copies: 2; blunt
[1] = molecular target: T1, KdpE DBD R200A (Escherichia coli str. K-12 substr. …, UniProt P21866 124-225, R200A)
T1 sequence: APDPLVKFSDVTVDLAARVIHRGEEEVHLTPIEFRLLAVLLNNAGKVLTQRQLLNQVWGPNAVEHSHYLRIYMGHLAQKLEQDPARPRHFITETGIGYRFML

[2] = molecular target: T2, KdpE DBD R193A (Escherichia coli str. K-12 substr. …, UniProt P21866 124-225, R193A)
T2 sequence: T1 sequence with R70A, A77R

[3] = molecular target: T3, KdpE DBD T215A (Escherichia coli str. K-12 substr. …, UniProt P21866 124-225, T215A)
T3 sequence: T1 sequence with A77R, T92A

Measured: binding result

B1: kdpFABCBS 30 bp (dsDNA)
DNA 1: CATTTTTATACTTTTTTTACACCCCGCCCG
DNA 2: CGGGCGGGGTGTAAAAAAAGTATAAAAATG
no binding: all assays above
